Assay results: patent EP4663654A1 (Hangzhou Sciwind Biosciences Co., Ltd., dated 2025)
Starred links: 1 amine or outer side, 2 acyl side, 3 side chain; linkers in the order of their positions; H or OH if unused. Non-standard residues stand in square brackets, D forms with d. *: point of attachment. C20 diacid = O=C(O)CCCCCCCCCCCCCCCCCCC(=O)*; γGlu = O=C(O)[C@H](CCC(=O)[*:2])N[*:1]; Hyp = O=C(O)[C@@H]1C[C@@H](O)CN1; αMeN = C[C@](N)(CC(N)=O)C(=O)O

T1: human amylin receptor (AMY3) on CHO-K1/Ga15/AMY3 amylin receptor/CRE-luc cells (human, UniProt P30988 25-474; O60896 24-148)
T1 sequence (looked up) 1: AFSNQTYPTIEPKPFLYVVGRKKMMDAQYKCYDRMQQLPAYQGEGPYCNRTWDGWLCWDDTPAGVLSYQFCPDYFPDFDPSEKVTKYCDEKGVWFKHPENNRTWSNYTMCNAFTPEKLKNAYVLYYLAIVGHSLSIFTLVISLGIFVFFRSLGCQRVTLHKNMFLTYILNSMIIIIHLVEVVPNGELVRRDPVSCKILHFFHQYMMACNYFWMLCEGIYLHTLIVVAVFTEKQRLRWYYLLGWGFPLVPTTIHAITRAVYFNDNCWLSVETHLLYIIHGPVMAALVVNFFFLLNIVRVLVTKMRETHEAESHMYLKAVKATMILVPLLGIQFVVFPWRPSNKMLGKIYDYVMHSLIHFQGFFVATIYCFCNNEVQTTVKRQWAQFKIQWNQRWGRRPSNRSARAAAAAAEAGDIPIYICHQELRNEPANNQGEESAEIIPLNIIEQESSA
T1 sequence (looked up) 2: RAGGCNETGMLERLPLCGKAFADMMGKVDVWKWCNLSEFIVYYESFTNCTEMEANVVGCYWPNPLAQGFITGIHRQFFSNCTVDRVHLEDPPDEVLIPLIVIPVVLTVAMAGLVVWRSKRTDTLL


Target: T1, human amylin receptor (AMY3) on …
Experiment: cell-based or functional assay

| Binder | EC50/nM, CRE-luciferase reporter in amylin receptor/CRE-luc CHO cells [nM] | Relative activity (the EC50 ratio of Cagrilintide to the compound) [%] |
| --- | --- | --- |
| {C20 diacid-γGlu}-ASQLSTAATQRLADFLRHSSNNLKPILPPTNVGSNT[Hyp]-NH2 (SMILES CC[C@H](C)[C@H](NC(=O)[C@@H]1CCCN1C(=O)[C@H](CCCCN)NC(=O)[C@H](CC(C)C)NC(=O)[C@H](CC(N)=O)NC(=O)[C@H](CC(N)=O)NC(=O)[C@H](CO)NC(=O)[C@H](CO)NC(=O)[C@H](Cc1c[nH]cn1)NC(=O)[C@H](CCCNC(=N)N)NC(=O)[C@H](CC(C)C)NC(=O)[C@H](Cc1ccccc1)NC(=O)[C@H](CC(=O)O)NC(=O)[C@H](C)NC(=O)[C@H](CC(C)C)NC(=O)[C@H](CCCNC(=N)N)NC(=O)[C@H](CCC(N)=O)NC(=O)[C@@H](NC(=O)[C@H](C)NC(=O)[C@H](C)NC(=O)[C@@H](NC(=O)[C@H](CO)NC(=O)[C@H](CC(C)C)NC(=O)[C@H](CCC(N)=O)NC(=O)[C@H](CO)NC(=O)[C@H](C)NC(=O)CC[C@H](NC(=O)CCCCCCCCCCCCCCCCCCC(=O)O)C(=O)O)[C@@H](C)O)[C@@H](C)O)C(=O)N[C@@H](CC(C)C)C(=O)N1CCC[C@H]1C(=O)N1CCC[C@H]1C(=O)N[C@H](C(=O)N[C@@H](CC(N)=O)C(=O)N[C@H](C(=O)NCC(=O)N[C@@H](CO)C(=O)N[C@@H](CC(N)=O)C(=O)N[C@H](C(=O)N1C[C@H](O)C[C@H]1C(N)=O)[C@@H](C)O)C(C)C)[C@@H](C)O) [polypeptide derivative M5] | 0.031 | 84 |
| {C20 diacid-γGlu}-ASELSTAALGRLADFLRHSSNNLKPILPPTNVGSNT[Hyp]-NH2 (SMILES CC[C@H](C)[C@H](NC(=O)[C@@H]1CCCN1C(=O)[C@H](CCCCN)NC(=O)[C@H](CC(C)C)NC(=O)[C@H](CC(N)=O)NC(=O)[C@H](CC(N)=O)NC(=O)[C@H](CO)NC(=O)[C@H](CO)NC(=O)[C@H](Cc1c[nH]cn1)NC(=O)[C@H](CCCNC(=N)N)NC(=O)[C@H](CC(C)C)NC(=O)[C@H](Cc1ccccc1)NC(=O)[C@H](CC(=O)O)NC(=O)[C@H](C)NC(=O)[C@H](CC(C)C)NC(=O)[C@H](CCCNC(=N)N)NC(=O)CNC(=O)[C@H](CC(C)C)NC(=O)[C@H](C)NC(=O)[C@H](C)NC(=O)[C@@H](NC(=O)[C@H](CO)NC(=O)[C@H](CC(C)C)NC(=O)[C@H](CCC(=O)O)NC(=O)[C@H](CO)NC(=O)[C@H](C)NC(=O)CC[C@H](NC(=O)CCCCCCCCCCCCCCCCCCC(=O)O)C(=O)O)[C@@H](C)O)C(=O)N[C@@H](CC(C)C)C(=O)N1CCC[C@H]1C(=O)N1CCC[C@H]1C(=O)N[C@H](C(=O)N[C@@H](CC(N)=O)C(=O)N[C@H](C(=O)NCC(=O)N[C@@H](CO)C(=O)N[C@@H](CC(N)=O)C(=O)N[C@H](C(=O)N1C[C@H](O)C[C@H]1C(N)=O)[C@@H](C)O)C(C)C)[C@@H](C)O) [polypeptide derivative M1] | 0.053 | 49 |
| {C20 diacid-γGlu}-ASQLSTAVTQRLADFLRHSSNNLKPILPPTNVGSNT[Hyp]-NH2 (SMILES CC[C@H](C)[C@H](NC(=O)[C@@H]1CCCN1C(=O)[C@H](CCCCN)NC(=O)[C@H](CC(C)C)NC(=O)[C@H](CC(N)=O)NC(=O)[C@H](CC(N)=O)NC(=O)[C@H](CO)NC(=O)[C@H](CO)NC(=O)[C@H](Cc1c[nH]cn1)NC(=O)[C@H](CCCNC(=N)N)NC(=O)[C@H](CC(C)C)NC(=O)[C@H](Cc1ccccc1)NC(=O)[C@H](CC(=O)O)NC(=O)[C@H](C)NC(=O)[C@H](CC(C)C)NC(=O)[C@H](CCCNC(=N)N)NC(=O)[C@H](CCC(N)=O)NC(=O)[C@@H](NC(=O)[C@@H](NC(=O)[C@H](C)NC(=O)[C@@H](NC(=O)[C@H](CO)NC(=O)[C@H](CC(C)C)NC(=O)[C@H](CCC(N)=O)NC(=O)[C@H](CO)NC(=O)[C@H](C)NC(=O)CC[C@H](NC(=O)CCCCCCCCCCCCCCCCCCC(=O)O)C(=O)O)[C@@H](C)O)C(C)C)[C@@H](C)O)C(=O)N[C@@H](CC(C)C)C(=O)N1CCC[C@H]1C(=O)N1CCC[C@H]1C(=O)N[C@H](C(=O)N[C@@H](CC(N)=O)C(=O)N[C@H](C(=O)NCC(=O)N[C@@H](CO)C(=O)N[C@@H](CC(N)=O)C(=O)N[C@H](C(=O)N1C[C@H](O)C[C@H]1C(N)=O)[C@@H](C)O)C(C)C)[C@@H](C)O) [polypeptide derivative M7] | 0.066 | 39 |
| {C20 diacid-γGlu}-ASQLSTAATQRLADFLRHFTDRDRDILPPTNVGSNTP-NH2 (SMILES CC[C@H](C)[C@H](NC(=O)[C@H](CC(=O)O)NC(=O)[C@H](CCCNC(=N)N)NC(=O)[C@H](CC(=O)O)NC(=O)[C@H](CCCNC(=N)N)NC(=O)[C@H](CC(=O)O)NC(=O)[C@@H](NC(=O)[C@H](Cc1ccccc1)NC(=O)[C@H](Cc1c[nH]cn1)NC(=O)[C@H](CCCNC(=N)N)NC(=O)[C@H](CC(C)C)NC(=O)[C@H](Cc1ccccc1)NC(=O)[C@H](CC(=O)O)NC(=O)[C@H](C)NC(=O)[C@H](CC(C)C)NC(=O)[C@H](CCCNC(=N)N)NC(=O)[C@H](CCC(N)=O)NC(=O)[C@@H](NC(=O)[C@H](C)NC(=O)[C@H](C)NC(=O)[C@@H](NC(=O)[C@H](CO)NC(=O)[C@H](CC(C)C)NC(=O)[C@H](CCC(N)=O)NC(=O)[C@H](CO)NC(=O)[C@H](C)NC(=O)CC[C@H](NC(=O)CCCCCCCCCCCCCCCCCCC(=O)O)C(=O)O)[C@@H](C)O)[C@@H](C)O)[C@@H](C)O)C(=O)N[C@@H](CC(C)C)C(=O)N1CCC[C@H]1C(=O)N1CCC[C@H]1C(=O)N[C@H](C(=O)N[C@@H](CC(N)=O)C(=O)N[C@H](C(=O)NCC(=O)N[C@@H](CO)C(=O)N[C@@H](CC(N)=O)C(=O)N[C@H](C(=O)N1CCC[C@H]1C(N)=O)[C@@H](C)O)C(C)C)[C@@H](C)O) [polypeptide derivative M6] | 0.042 | 62 |

Second part, the binder after the results:

| EC50/nM, CRE-luciferase reporter in amylin receptor/CRE-luc CHO cells [nM] | Relative activity (the EC50 ratio of Cagrilintide to the compound) [%] | Binder |
| --- | --- | --- |
| 0.03 | 233 | {C20 diacid-γGlu}-ASQLSTAATQRLADFLRHSSN[αMeN]LKPILPPTNVGSNT[Hyp]-NH2 [polypeptide derivative M55] |
| 0.08 | 200 | {C20 diacid-γGlu}-ASQLSTAATQRLADFLRHSSKNLKPILPPTNVGSNT[Hyp]-NH2 (SMILES CC[C@H](C)[C@H](NC(=O)[C@@H]1CCCN1C(=O)[C@H](CCCCN)NC(=O)[C@H](CC(C)C)NC(=O)[C@H](CC(N)=O)NC(=O)[C@H](CCCCN)NC(=O)[C@H](CO)NC(=O)[C@H](CO)NC(=O)[C@H](Cc1c[nH]cn1)NC(=O)[C@H](CCCNC(=N)N)NC(=O)[C@H](CC(C)C)NC(=O)[C@H](Cc1ccccc1)NC(=O)[C@H](CC(=O)O)NC(=O)[C@H](C)NC(=O)[C@H](CC(C)C)NC(=O)[C@H](CCCNC(=N)N)NC(=O)[C@H](CCC(N)=O)NC(=O)[C@@H](NC(=O)[C@H](C)NC(=O)[C@H](C)NC(=O)[C@@H](NC(=O)[C@H](CO)NC(=O)[C@H](CC(C)C)NC(=O)[C@H](CCC(N)=O)NC(=O)[C@H](CO)NC(=O)[C@H](C)NC(=O)CC[C@H](NC(=O)CCCCCCCCCCCCCCCCCCC(=O)O)C(=O)O)[C@@H](C)O)[C@@H](C)O)C(=O)N[C@@H](CC(C)C)C(=O)N1CCC[C@H]1C(=O)N1CCC[C@H]1C(=O)N[C@H](C(=O)N[C@@H](CC(N)=O)C(=O)N[C@H](C(=O)NCC(=O)N[C@@H](CO)C(=O)N[C@@H](CC(N)=O)C(=O)N[C@H](C(=O)N1C[C@H](O)C[C@H]1C(N)=O)[C@@H](C)O)C(C)C)[C@@H](C)O) [polypeptide derivative M53] |
| 0.06 | 267 | {C20 diacid-γGlu}-ASQLSTAATQRLADFLRHSSRNLKPILPPTNVGSNT[Hyp]-NH2 (SMILES CC[C@H](C)[C@H](NC(=O)[C@@H]1CCCN1C(=O)[C@H](CCCCN)NC(=O)[C@H](CC(C)C)NC(=O)[C@H](CC(N)=O)NC(=O)[C@H](CCCNC(=N)N)NC(=O)[C@H](CO)NC(=O)[C@H](CO)NC(=O)[C@H](Cc1c[nH]cn1)NC(=O)[C@H](CCCNC(=N)N)NC(=O)[C@H](CC(C)C)NC(=O)[C@H](Cc1ccccc1)NC(=O)[C@H](CC(=O)O)NC(=O)[C@H](C)NC(=O)[C@H](CC(C)C)NC(=O)[C@H](CCCNC(=N)N)NC(=O)[C@H](CCC(N)=O)NC(=O)[C@@H](NC(=O)[C@H](C)NC(=O)[C@H](C)NC(=O)[C@@H](NC(=O)[C@H](CO)NC(=O)[C@H](CC(C)C)NC(=O)[C@H](CCC(N)=O)NC(=O)[C@H](CO)NC(=O)[C@H](C)NC(=O)CC[C@H](NC(=O)CCCCCCCCCCCCCCCCCCC(=O)O)C(=O)O)[C@@H](C)O)[C@@H](C)O)C(=O)N[C@@H](CC(C)C)C(=O)N1CCC[C@H]1C(=O)N1CCC[C@H]1C(=O)N[C@H](C(=O)N[C@@H](CC(N)=O)C(=O)N[C@H](C(=O)NCC(=O)N[C@@H](CO)C(=O)N[C@@H](CC(N)=O)C(=O)N[C@H](C(=O)N1C[C@H](O)C[C@H]1C(N)=O)[C@@H](C)O)C(C)C)[C@@H](C)O) [polypeptide derivative M54] |
